According to the supplement of paper PMC9876800:

test system: peptide library, one residue held at a place counted from the S/T acceptor; test: relative phosphorylation of the sub-library (ratio to the mean residue at this position); human; higher = residue favoured; settings: G fixed; at -3
How it was run: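 In 384-well plates, purified recombinant kinases (human or orthologue constructs) were incubated for 90 min under kinase-specific conditions with 50 μM biotinylated degenerate peptide sub-libraries and 50 μM ATP spiked with γ-32P-ATP. Each sub-library fixed a single residue at one position around a central Ser/Thr. Relative sub-library phosphorylation, measured by phosphorimaging and densitometry of streptavidin membrane spots, is given as a ratio to the mean residue at that position.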

Sequence of CDK10, construct: Full length (Q15131 whole entry, looked up): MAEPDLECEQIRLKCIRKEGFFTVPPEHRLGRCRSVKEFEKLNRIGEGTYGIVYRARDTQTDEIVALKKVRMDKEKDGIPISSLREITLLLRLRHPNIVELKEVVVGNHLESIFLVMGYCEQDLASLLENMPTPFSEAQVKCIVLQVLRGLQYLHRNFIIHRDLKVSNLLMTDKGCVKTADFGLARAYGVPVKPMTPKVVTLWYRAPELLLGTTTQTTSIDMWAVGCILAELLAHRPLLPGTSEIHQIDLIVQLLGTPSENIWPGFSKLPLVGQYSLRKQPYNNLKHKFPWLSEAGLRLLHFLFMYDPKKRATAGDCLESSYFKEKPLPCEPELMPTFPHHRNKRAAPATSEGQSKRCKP
Sequence of SLK, construct: Full length (Q9H2G2 whole entry, looked up): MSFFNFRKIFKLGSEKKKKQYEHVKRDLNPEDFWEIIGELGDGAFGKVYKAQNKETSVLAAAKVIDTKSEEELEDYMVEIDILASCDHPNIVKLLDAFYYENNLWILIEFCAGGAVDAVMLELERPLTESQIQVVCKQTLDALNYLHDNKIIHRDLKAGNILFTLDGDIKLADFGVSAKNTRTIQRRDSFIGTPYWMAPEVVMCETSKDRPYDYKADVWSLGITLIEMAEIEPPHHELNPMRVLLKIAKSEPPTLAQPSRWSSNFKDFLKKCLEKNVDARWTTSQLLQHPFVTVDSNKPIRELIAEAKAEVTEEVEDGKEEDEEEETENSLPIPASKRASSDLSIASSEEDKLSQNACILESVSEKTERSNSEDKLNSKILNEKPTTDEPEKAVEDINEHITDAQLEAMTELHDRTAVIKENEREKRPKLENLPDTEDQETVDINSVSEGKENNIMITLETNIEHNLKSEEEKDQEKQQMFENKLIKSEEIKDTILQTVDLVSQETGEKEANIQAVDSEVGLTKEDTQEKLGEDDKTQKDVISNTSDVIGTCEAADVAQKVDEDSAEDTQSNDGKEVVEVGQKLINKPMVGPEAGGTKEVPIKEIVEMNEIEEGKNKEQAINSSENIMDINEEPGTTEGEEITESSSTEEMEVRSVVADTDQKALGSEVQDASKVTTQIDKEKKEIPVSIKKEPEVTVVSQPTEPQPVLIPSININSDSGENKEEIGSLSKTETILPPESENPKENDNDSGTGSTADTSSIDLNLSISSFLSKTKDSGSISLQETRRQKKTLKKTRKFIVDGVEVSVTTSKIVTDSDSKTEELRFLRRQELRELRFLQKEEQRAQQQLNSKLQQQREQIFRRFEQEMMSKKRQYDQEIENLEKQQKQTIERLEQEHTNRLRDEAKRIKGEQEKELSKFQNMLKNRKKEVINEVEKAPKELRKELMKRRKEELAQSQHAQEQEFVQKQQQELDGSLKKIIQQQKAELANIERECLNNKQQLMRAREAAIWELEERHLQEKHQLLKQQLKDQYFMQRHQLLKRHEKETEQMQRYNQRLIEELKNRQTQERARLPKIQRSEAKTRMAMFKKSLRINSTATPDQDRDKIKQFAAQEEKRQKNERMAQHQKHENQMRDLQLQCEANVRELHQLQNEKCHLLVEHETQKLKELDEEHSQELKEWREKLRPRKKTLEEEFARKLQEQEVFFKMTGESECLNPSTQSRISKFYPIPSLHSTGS
Sequence of SIK3, construct: aa1-307 (Q9Y2K2 1-307, looked up): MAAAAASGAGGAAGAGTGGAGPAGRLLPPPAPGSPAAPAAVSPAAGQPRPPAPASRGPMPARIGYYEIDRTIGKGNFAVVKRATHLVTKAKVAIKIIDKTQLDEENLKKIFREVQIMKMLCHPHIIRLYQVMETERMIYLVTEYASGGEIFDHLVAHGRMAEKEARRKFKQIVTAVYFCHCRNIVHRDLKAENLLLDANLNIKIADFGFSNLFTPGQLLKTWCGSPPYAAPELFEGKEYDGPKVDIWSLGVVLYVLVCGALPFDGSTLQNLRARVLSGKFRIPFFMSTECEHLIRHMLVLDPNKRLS
Sequence of MAP4K5, construct: Full length (Q9Y4K4 whole entry, looked up): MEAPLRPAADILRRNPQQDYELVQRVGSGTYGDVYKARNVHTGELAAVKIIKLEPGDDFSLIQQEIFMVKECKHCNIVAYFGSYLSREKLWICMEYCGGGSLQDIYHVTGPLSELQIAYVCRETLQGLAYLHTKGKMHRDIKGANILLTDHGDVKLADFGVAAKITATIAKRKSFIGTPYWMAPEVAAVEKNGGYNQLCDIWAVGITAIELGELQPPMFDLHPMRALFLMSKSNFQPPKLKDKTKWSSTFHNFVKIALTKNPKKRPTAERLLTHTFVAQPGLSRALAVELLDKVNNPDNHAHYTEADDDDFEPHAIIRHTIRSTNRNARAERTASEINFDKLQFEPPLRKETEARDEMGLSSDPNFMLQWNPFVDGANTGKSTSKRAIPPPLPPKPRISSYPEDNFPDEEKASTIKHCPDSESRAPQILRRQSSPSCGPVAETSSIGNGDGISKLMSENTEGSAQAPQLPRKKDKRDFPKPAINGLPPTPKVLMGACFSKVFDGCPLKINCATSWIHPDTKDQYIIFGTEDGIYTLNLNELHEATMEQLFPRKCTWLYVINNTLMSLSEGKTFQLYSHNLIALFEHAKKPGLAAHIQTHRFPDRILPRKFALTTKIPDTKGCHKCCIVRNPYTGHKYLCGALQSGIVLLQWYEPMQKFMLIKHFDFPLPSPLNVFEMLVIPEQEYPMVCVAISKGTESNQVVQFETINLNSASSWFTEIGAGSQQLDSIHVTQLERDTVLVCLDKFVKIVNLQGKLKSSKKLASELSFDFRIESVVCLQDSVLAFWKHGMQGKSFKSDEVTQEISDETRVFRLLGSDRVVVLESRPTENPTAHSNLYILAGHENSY
Sequence of TNIK, construct: aa1-314 (Q9UKE5 1-314, looked up): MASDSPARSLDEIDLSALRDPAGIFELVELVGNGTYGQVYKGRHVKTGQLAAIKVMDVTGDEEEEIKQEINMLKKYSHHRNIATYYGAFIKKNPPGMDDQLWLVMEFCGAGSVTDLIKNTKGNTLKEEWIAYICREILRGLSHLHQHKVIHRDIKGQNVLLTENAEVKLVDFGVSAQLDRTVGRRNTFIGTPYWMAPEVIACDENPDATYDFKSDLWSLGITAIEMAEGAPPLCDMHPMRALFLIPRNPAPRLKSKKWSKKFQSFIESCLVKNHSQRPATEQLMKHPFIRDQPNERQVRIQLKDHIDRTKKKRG
Sequence of NEK6, construct: Full length (Q9HC98 whole entry, looked up): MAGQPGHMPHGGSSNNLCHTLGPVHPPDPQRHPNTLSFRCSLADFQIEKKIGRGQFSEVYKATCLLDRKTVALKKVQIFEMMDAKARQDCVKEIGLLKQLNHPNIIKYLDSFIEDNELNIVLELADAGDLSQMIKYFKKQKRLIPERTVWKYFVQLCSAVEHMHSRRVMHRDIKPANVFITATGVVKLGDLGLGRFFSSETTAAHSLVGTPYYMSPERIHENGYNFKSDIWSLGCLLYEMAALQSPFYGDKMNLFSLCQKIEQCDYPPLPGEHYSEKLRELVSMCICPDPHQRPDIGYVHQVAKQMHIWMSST
Sequence of IKBKE, construct: Full length (Q14164 whole entry, looked up): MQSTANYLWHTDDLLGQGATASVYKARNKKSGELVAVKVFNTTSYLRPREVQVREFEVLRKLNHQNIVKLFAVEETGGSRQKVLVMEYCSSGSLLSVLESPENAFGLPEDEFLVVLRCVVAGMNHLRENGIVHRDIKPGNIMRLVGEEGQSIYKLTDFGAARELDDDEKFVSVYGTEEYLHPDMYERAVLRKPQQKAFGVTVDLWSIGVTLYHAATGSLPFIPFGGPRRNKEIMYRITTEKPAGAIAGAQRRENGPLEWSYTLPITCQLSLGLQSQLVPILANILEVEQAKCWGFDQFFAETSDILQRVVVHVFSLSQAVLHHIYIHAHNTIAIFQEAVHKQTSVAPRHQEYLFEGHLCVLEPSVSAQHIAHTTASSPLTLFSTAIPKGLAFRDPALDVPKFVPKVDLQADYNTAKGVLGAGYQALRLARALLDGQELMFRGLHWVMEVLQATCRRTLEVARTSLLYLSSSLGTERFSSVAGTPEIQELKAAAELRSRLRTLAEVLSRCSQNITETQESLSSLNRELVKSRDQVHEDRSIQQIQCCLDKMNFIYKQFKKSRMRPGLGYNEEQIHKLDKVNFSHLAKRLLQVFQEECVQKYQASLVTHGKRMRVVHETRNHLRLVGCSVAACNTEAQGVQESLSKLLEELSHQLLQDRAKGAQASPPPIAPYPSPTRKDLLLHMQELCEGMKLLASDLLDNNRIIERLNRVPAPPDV

Substance	relative phosphorylation
SLK, construct: Full length (from UniProt Q9H2G2)	0.641
CDK10, construct: Full length (from UniProt Q15131)	1.01

same assay, conditions: G fixed; at -4

Substance	relative phosphorylation
PKN2, construct: aa501-984 (from UniProt Q16513)	1.19
IKBKE, construct: Full length (from UniProt Q14164)	1.44
MAP4K5, construct: Full length (from UniProt Q9Y4K4)	1.33
NEK6, construct: Full length (from UniProt Q9HC98)	1.13
SIK3, construct: aa1-307 (from UniProt Q9Y2K2)	1.36
TNIK, construct: aa1-314 (from UniProt Q9UKE5)	1.18
SLK, construct: Full length (from UniProt Q9H2G2)	1.2
CDK10, construct: Full length (from UniProt Q15131)	0.955

same assay, conditions: G fixed; at -5

Substance	relative phosphorylation
PKN2, construct: aa501-984 (from UniProt Q16513)	1.04
IKBKE, construct: Full length (from UniProt Q14164)	1.21
MAP4K5, construct: Full length (from UniProt Q9Y4K4)	1.42
NEK6, construct: Full length (from UniProt Q9HC98)	1.36
SIK3, construct: aa1-307 (from UniProt Q9Y2K2)	1.16
TNIK, construct: aa1-314 (from UniProt Q9UKE5)	1.31
SLK, construct: Full length (from UniProt Q9H2G2)	1.06
CDK10, construct: Full length (from UniProt Q15131)	1.05

same assay, conditions: H fixed; at +1

Substance	relative phosphorylation
PKN2, construct: aa501-984 (from UniProt Q16513)	0.805
IKBKE, construct: Full length (from UniProt Q14164)	0.688
MAP4K5, construct: Full length (from UniProt Q9Y4K4)	0.605
NEK6, construct: Full length (from UniProt Q9HC98)	1.2
SIK3, construct: aa1-307 (from UniProt Q9Y2K2)	0.747
TNIK, construct: aa1-314 (from UniProt Q9UKE5)	0.916
SLK, construct: Full length (from UniProt Q9H2G2)	0.835
CDK10, construct: Full length (from UniProt Q15131)	0.235

same assay, conditions: H fixed; at +2

Substance	relative phosphorylation
PKN2, construct: aa501-984 (from UniProt Q16513)	1.63
IKBKE, construct: Full length (from UniProt Q14164)	1.14
MAP4K5, construct: Full length (from UniProt Q9Y4K4)	1.13
NEK6, construct: Full length (from UniProt Q9HC98)	1.23
SIK3, construct: aa1-307 (from UniProt Q9Y2K2)	1.14
TNIK, construct: aa1-314 (from UniProt Q9UKE5)	1.28
SLK, construct: Full length (from UniProt Q9H2G2)	1.38
CDK10, construct: Full length (from UniProt Q15131)	1.22

same assay, conditions: H fixed; at +3

Substance	relative phosphorylation
PKN2, construct: aa501-984 (from UniProt Q16513)	1.22
IKBKE, construct: Full length (from UniProt Q14164)	1.24
MAP4K5, construct: Full length (from UniProt Q9Y4K4)	1.23
NEK6, construct: Full length (from UniProt Q9HC98)	1.13
SIK3, construct: aa1-307 (from UniProt Q9Y2K2)	1.36
TNIK, construct: aa1-314 (from UniProt Q9UKE5)	0.94
SLK, construct: Full length (from UniProt Q9H2G2)	1.13
CDK10, construct: Full length (from UniProt Q15131)	1.23

same assay, conditions: H fixed; at +4

Substance	relative phosphorylation
PKN2, construct: aa501-984 (from UniProt Q16513)	1.25
IKBKE, construct: Full length (from UniProt Q14164)	1.15
MAP4K5, construct: Full length (from UniProt Q9Y4K4)	1.14
NEK6, construct: Full length (from UniProt Q9HC98)	1.02
SIK3, construct: aa1-307 (from UniProt Q9Y2K2)	0.678
TNIK, construct: aa1-314 (from UniProt Q9UKE5)	1.06
SLK, construct: Full length (from UniProt Q9H2G2)	1.15
CDK10, construct: Full length (from UniProt Q15131)	1.37

same assay, conditions: H fixed; at -1

Substance	relative phosphorylation
PKN2, construct: aa501-984 (from UniProt Q16513)	1.16
IKBKE, construct: Full length (from UniProt Q14164)	1.11
MAP4K5, construct: Full length (from UniProt Q9Y4K4)	1.3
NEK6, construct: Full length (from UniProt Q9HC98)	1.13
SIK3, construct: aa1-307 (from UniProt Q9Y2K2)	0.857
TNIK, construct: aa1-314 (from UniProt Q9UKE5)	1.52
SLK, construct: Full length (from UniProt Q9H2G2)	1.16
CDK10, construct: Full length (from UniProt Q15131)	0.915

same assay, conditions: H fixed; at -2

Substance	relative phosphorylation
PKN2, construct: aa501-984 (from UniProt Q16513)	1.43
IKBKE, construct: Full length (from UniProt Q14164)	0.99
MAP4K5, construct: Full length (from UniProt Q9Y4K4)	1.41
NEK6, construct: Full length (from UniProt Q9HC98)	0.982
SIK3, construct: aa1-307 (from UniProt Q9Y2K2)	1.3
TNIK, construct: aa1-314 (from UniProt Q9UKE5)	1.19
SLK, construct: Full length (from UniProt Q9H2G2)	0.848
CDK10, construct: Full length (from UniProt Q15131)	0.821

same assay, conditions: H fixed; at -3

Substance	relative phosphorylation
PKN2, construct: aa501-984 (from UniProt Q16513)	1.49
IKBKE, construct: Full length (from UniProt Q14164)	1.09
MAP4K5, construct: Full length (from UniProt Q9Y4K4)	1.21
NEK6, construct: Full length (from UniProt Q9HC98)	0.792
SIK3, construct: aa1-307 (from UniProt Q9Y2K2)	1.11
TNIK, construct: aa1-314 (from UniProt Q9UKE5)	1.47
SLK, construct: Full length (from UniProt Q9H2G2)	1.14
CDK10, construct: Full length (from UniProt Q15131)	1.11

same assay, conditions: H fixed; at -4

Substance	relative phosphorylation
PKN2, construct: aa501-984 (from UniProt Q16513)	1.16
IKBKE, construct: Full length (from UniProt Q14164)	1.08
MAP4K5, construct: Full length (from UniProt Q9Y4K4)	1.09
NEK6, construct: Full length (from UniProt Q9HC98)	0.894
SIK3, construct: aa1-307 (from UniProt Q9Y2K2)	1.19
TNIK, construct: aa1-314 (from UniProt Q9UKE5)	1.13
SLK, construct: Full length (from UniProt Q9H2G2)	1.04
CDK10, construct: Full length (from UniProt Q15131)	1.13

same assay, conditions: H fixed; at -5

Substance	relative phosphorylation
PKN2, construct: aa501-984 (from UniProt Q16513)	0.946
IKBKE, construct: Full length (from UniProt Q14164)	1.14
MAP4K5, construct: Full length (from UniProt Q9Y4K4)	1.02
